Data published in PMC7997048.

Key:
[1] = target: ephrin-B2-Fc (extracellular region of murine ephrin-B2, Fc fusion) (murine) (UniProt P52800); assay: SEC; Superdex 200 FPLC of the EphB6-ECD/ephrin-B2 complex, micromolar concentration range
[2] = target: ephrin-B2-Fc (extracellular region of murine ephrin-B2, Fc fusion) (murine) (UniProt P52800); assay: BLI; BLItz instrument; Protein-A biosensor loaded with 50 ug/ml purified Fc-tagged ephrin-B2, washed with HBS; EphB6-ECD at 100 nM and 1 uM, association and dissociation 3 min each; apparent Kd
[3] = target: ephrin-B2 (Homo sapiens) (UniProt P52799); conditions: cited from earlier work
UniProt P52799, sequence (P52799 28-229): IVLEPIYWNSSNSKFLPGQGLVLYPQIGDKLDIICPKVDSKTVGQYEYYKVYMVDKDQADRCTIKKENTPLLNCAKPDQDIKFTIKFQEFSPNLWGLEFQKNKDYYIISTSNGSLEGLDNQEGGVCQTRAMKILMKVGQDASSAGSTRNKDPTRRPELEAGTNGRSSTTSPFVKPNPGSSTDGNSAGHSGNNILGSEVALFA

Row | stoichiometry N [1] | Kd [2] | Substance | Kd [3]
1 | 1 | 88.5 nM | EphB6 receptor ectodomain (EphB6-ECD) (from UniProt O15197 32-594) (domain or fragment) | –
2 | – | – | EphB2 (from UniProt P29323) | 8.6 nM
